Measured values published in paper PMC10484666.
pKd: −log10 of the molar value.

Biological target: IMP1 KH34 Y396F (Gallus gallus) (UniProt O42254)
Assay: BLI
Details: N6-methyladenosine at position 6; BLI: 10 mM Na2HPO4 pH 6.5, 50 mM NaCl, 1 mM TCEP, 2 mg/ml BSA, 0.005% Tween-20, 25 C; NMR: 80 uM protein, 37 C, NMR buffer not printed (protein in 10 mM …)

Chain of IMP1 KH34 Y396F (Gallus gallus) (O42254 387-573 Y396F): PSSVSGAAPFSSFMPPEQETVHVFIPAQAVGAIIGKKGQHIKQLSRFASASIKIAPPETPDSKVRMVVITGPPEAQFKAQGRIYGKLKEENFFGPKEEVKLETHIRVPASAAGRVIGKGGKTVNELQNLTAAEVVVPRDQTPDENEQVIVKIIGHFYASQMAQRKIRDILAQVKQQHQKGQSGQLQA

Substance ACTB zipcode RNA, m6A has a pKd of 8.43.
